The text below walks through data of US20230029453A1 (Janssen / Centocor, published 2023).

Assay in all cases: UV peptide exchange; HLA class I ELISA
On the technique in general: ELISA stands for enzyme-linked immunosorbent assay.

Assay [1] deals with T1, HLA-A*03:01 (human, biotinylated heavy chain).
T1 construct: Conditional HLA class I complex as for m1
Experimental: (§1) The HLA class I ELISA is an enzyme immunoassay based on the detection of beta2-microglobulin (B2M) of (peptide-stabilized) HLA class I complexes. To this end streptavidin was bound onto polystyrene microtiter wells. […] Subsequently, horseradish peroxidase (HRP)-conjugated antibody to human B2M was added. […] In the latter case B2M was removed during the washing step. After removal of non-bound HRP conjugate by washing, a substrate solution was added to the wells. A coloured product formed in proportion to the amount of intact HLA complex present in the samples. After the reaction was terminated by the addition of a stop solution, absorbance was measured in a microtiter plate reader.
(§2) Higher percentages correspond to stronger binding to the HLA allele.

Assay [2] concerns the target T2, HLA-B*08:01 (human, biotinylated heavy chain).
T2 construct: Conditional HLA class I complex as for m1
Experimental: as §1, §2

Assay [3] addresses T3, HLA-B*07:02 (human, biotinylated heavy chain).
T3 construct: Conditional HLA class I complex as for m1
Experimental: as §1, §2

Assay [4] has as its target T4, HLA-A*01:01 (human, biotinylated heavy chain).
T4 construct: Conditional HLA class I complex (heavy chain + B2M) first held by a UV-labile peptide; the tested peptide is exchanged in after UV cleavage
Experimental: as §1, §2

The target of assay [5] is T5, HLA-A*24:02 (human, biotinylated heavy chain).
T5 construct: Conditional HLA class I complex as for m1
Experimental: as §1, §2

In assay [6] the target is T6, HLA-A*02:01 (human, biotinylated heavy chain).
T6 construct: Conditional HLA class I complex as for m1
Experimental: as §1, §2

The target of assay [7] is T5, HLA-A*24:02. The source holds these as a separate data set.
Experimental: (§3) The UV control represented UV-irradiation of conditional HLA class I complex in the absence of a rescue peptide.
as §1
Assay [8] concerns the target T2, HLA-B*08:01. This is another data set of the same source.
Experimental: as §3, §1
Assay [9] addresses T6, HLA-A*02:01. This is another data set of the same source.
Experimental: as §3, §1
In assay [10] the target is T4, HLA-A*01:01. This is another data set of the same source.
Experimental: as §3, §1
Assay [11] addresses T7, HLA-B*27:05 (human, biotinylated heavy chain).
T7 construct: Conditional HLA class I complex as for m1
Experimental: as §1

Assay [12] concerns the target T3, HLA-B*07:02. The source holds these as a separate data set.
Experimental: as §3, §1

Take NMVENGCYL (Synthetic 9-mer) [P59 9-mer NMVENGCYL (FOXA1 F254V)]: the “exchange rate with Pos” value was 4.5% in assay [1]; 5.5% in assay [2]; 7.5% in assay [3]; 2.2% in assay [4]; -0.5% in assay [5]; 11.9% in assay [6].

Consider FFKRAAEGF (Synthetic 9-mer) [P77 9-mer FFKRAAEGF (AR-V3)], for which the “exchange rate with Pos” value came out at 2.8% in assay [1]; 3.4% in assay [2]; 14.2% in [3]; 1.9% in assay [4]; 1.7% in assay [5].

As to NSKMALNSL (Synthetic 9-mer) [P35 9-mer NSKMALNSL (TMPRSS2-ERG fusion)], the “exchange rate with Pos” value in assay [1] was 4.2%; in assay [2], 13.7%; in assay [3] it was 12.1%; in [4] it was 2.5%; in assay [5], 0.2%; in assay [6] it was 12.5%.

As to STRRAVRRM (Synthetic 9-mer) [P16 9-mer STRRAVRRM (MSMB-NCOA4 fusion)], the “exchange rate with Pos” value in assay [1] was determined as 6.1%; in assay [2] it was 6.2%; in assay [3] it was 13.7%; in assay [4] it was 5.5%; in [5], 0.8%; in assay [6], 10.4%.

Regarding GVLRRLLCR (Synthetic 9-mer) [P37 9-mer GVLRRLLCR (TSTD1-F11R fusion)], the “exchange rate with Pos” value in assay [1] was 6.4%; in assay [2], 3.3%; in [4], 1.4%; in [5] it was -0.1%; in assay [6], 12.5%.

Consider FPVGAEGTF (Synthetic 9-mer) [P27 9-mer FPVGAEGTF (FAM126B-ORC2 fusion)], for which the “exchange rate with Pos” value worked out at 4.5% in assay [1]; 6.4% in assay [2]; 7.8% in assay [3]; 4.8% in [4]; 0.7% in assay [5]; 10% in assay [6].

For the molecule LIAMDSAIT [Peptide 10, 9-mer LIAMDSAIT derived from P22 (SEQ ID NO: 1003)], the Average % stood at 4.8% in [7]; 7.3% in assay [8]; 6.9% in [9]; 5.8% in assay [10]; 7.3% in assay [11]; 9.5% in assay [12]. Also, the “Exch I (%)” value in [7] came out at 4.6%; in assay [8] it was 6.9%; in assay [9] it was 6.7%; in assay [10], 6.2%; in assay [11], 8.5%; in assay [12] it was 9.8%. Further, the “Exch II (%)” value turned out to be 5.1% in assay [7]; 7.7% in assay [8]; 7.1% in assay [9]; 5.4% in assay [10]; 6.1% in [11]; 9.2% in assay [12].

As to IQYSCMGLM (Synthetic 9-mer) [P50 9-mer IQYSCMGLM (AR W742C)], the “exchange rate with Pos” value in assay [1] was 5.5%; in assay [2], 4.7%; in assay [3] it was 10.4%; in [4], 2.3%; in [5] it was 0.1%; in assay [6], 8.8%.
